Data set [1] has as its system poly(glu,tyr). The data set is described as follows: Csk kinase assay, transfer of 32P from γ-32P-ATP to poly(glu,tyr). Type of data set: biochemical. As for the experimental part:
In each of the two ligation reactions, the crude product mixture was nearly free of unligated material, although both preparations were contaminated with GroEL and DnaK. Although yields were not optimized, an estimated 0.5 mg of ligation product per 2.5 L bacterial cell culture was produced. […] Kinase assays were performed as described by Cole et al., J. Biol. Chem. 269, 30880 (1994) where transfer of ^32P from γ-^32P-ATP to poly(glu,tyr) was monitored. Briefly, poly(glu,tyr) reactions were carried out in 60 mM Tris-HCl, pH 7.4, 2 mM MnCl2, 10 mM dithiothreitol, 200 μg/mL BSA for 2 minutes at 30° C., quenched with EDTA, run out on 10% SDSPAGE and phosphopoly(glu,tyr) analyzed by scintillation counting. […] Further characterization of (Csk^PEP) and (Csk^pPEP) by electrospray mass spectrometry gave molecular masses in good agreement with the predicted values (FIG. 2C).

Data set [2] concerns the target T1, poly(glu,tyr) (Homo sapiens, UniProt P41240).
T1 construct: N-terminal methionine residue in the protein produced as an intein-CBD fusion was completely removed (no such cleavage is observed); Tyr unphosphorylated in Csk^PEP, phosphorylated in Csk^pPEP; made in house; host or cells: E. coli DH5α, co-expressed with GroES/GroEL
Particulars: wild type Csk, reference (32), cited from earlier work.

Data set [3] has as its target T2, consolidated ligand NH2-PVpYENVG6>(PPAYPPPPVPKCONH2) (Homo sapiens, UniProt P00519, C100A/N120G/S121C).
T2 construct: intein-CBD (on the SH3 segment, removed on thioester formation) (C, cleaved yes); GST-SH3-IEGR (upstream of the SH2 segment, removed by thrombin and Factor Xa) (N, cleaved yes); made in house; host or cells: E. coli (BL21 for SH3-intein-CBD, DH5-α for the GST fusion that gives SH2)
The data set is described as follows: Fluorescence-based titration binding assay. Particulars: consolidated ligand binding both SH3 and SH2 domains; read-out: equilibration dissociation constant (Kd) for binding to the ligand. An excerpt: Under these conditions, no protein precipitation was observed and NMR analysis indicated the sample had adopted a native fold. A similar strategy was therefore used to prepare the complete [SH2-^15N]SH(32) construct for functional and structural analysis. The binding affinity of Abl-[SH2^15N]SH(32) for the consolidated ligand, NH2-PVpYENVG6>(PPAYPPPPVPKCONH2) (SEQ ID NOs: 5 and 6, respectively), which binds both the SH3 and the SH2 domains simultaneously (78) was studied using a fluorescence-based titration assay. (The C-terminal glycyl residue is linked to the N ε of lysyl in the second peptide segment). […] This affinity is characteristic of the dual domain construct.
Fluorescence Binding Assay: The equilibrium dissociation constants of the protein constructs for the consolidated ligand were determined using the previously describedfluorescence-based titration assay (78). The binding constant for the segment labeled construct was 300 (±100) nM. Experiments were performed on a Spex Fluorolog-3 spectrophotometer fitted with a Neslab temperature control unit.

As a reminder, the kcat is the number of substrate molecules converted per active site and unit of time at saturation. As usually defined, the Km is the substrate concentration at which the rate is half of its maximum.

B1: wild type Csk: Full-length wild-type human C-terminal Src kinase, 50 kDa protein (protein, UniProt P41240 1-450, looked up)
chain: MSAIQAAWPSGTECIAKYNFHGTAEQDLPFCKGDVLTIVAVTKDPNWYKAKNKVGREGIIPANYVQKREGVKAGTKLSLMPWFHGKITREQAERLLYPPETGLFLVRESTNYPGDYTLCVSCDGKVEHYRIMYHASKLSIDEEVYFENLMQLVEHYTSDADGLCTRLIKPKVMEGTVAAQDEFYRSGWALNMKELKLLQTIGKGEFGDVMLGDYRGNKVAVKCIKNDATAQAFLAEASVMTQLRHSNLVQLLGVIVEEKGGLYIVTEYMAKGSLVDYLRSRGRSVLGGDCLLKFSLDVCEAMEYLEGNNFVHRDLAARNVLVSEDNVAKVSDFGLTKEASSTQDTGKLPVKWTAPEALREKKFSTKSDVWSFGILLWEIYSFGRVPYPRIPLKDVVPRVEKGYKMDAPDGCPPAVYEVMKNCWHLDAAMRPSFLQLREQLEHIKTHELHL
modifications: full-length
notes: Full-length wild-type human C-terminal Src kinase, 50 kDa protein
Consider B1, for which the “catalytic activity (kinase assay)” value in the data set with poly(glu,tyr) [1] is listed as “fully active”. For the same molecule, in the data set with poly(glu,tyr) [2], the “Km of poly(glu,tyr)” value was 48 ± 2 µg/mL and the kcat is 0.667 ± 0.083 s⁻¹. Also, the Km in the data set with poly(glu,tyr) [2] (read-out: Km of ATP) is 12 ± 1 µM.

B2: Abl-[SH2^15N]SH(32): Ligated human Abl SH3-SH2 domain pair with G120 C121 mutations, only the SH2 domain 15N labeled (SEQ ID NO: 1) (protein)
chain: MLFVALYDFVASGDNTLSITKGEKLRVLGYNHNGEWAEAQTKNGQGWVPSNYITPVGCLEKHSWYHGPVSRNAAEYLLSSGINGSFLVRESESSPGQRSISLRYEGRVYHYRINTASDGKLYVSSESRFNTLAELVHHHSTVADGLITTLHYPAPKRGIHRD
modifications: 15N label on SH2 domain
Regarding B2, the Kd in data set [3] is 0.3 µM.

The values above are taken from US6875594B2, “Methods of ligating expressed proteins” (The Rockefeller University, priority 1997, dated 2005).
